Values of other authors as cited in publication PMC11695704.

Target: Clr-b (Mus musculus) (UniProt Q91V08)
Sequence of UniProt Q91V08 (Q91V08 whole entry): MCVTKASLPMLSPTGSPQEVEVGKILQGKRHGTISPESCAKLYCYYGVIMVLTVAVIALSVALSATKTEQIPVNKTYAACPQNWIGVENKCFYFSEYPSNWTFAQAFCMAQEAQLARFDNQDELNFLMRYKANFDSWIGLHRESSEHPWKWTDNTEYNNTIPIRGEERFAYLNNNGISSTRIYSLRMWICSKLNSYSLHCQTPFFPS

Kd: > 500 µM
Substance: NKR-P1B (from UniProt P27812)
